Experimental data reported in US20160347834A1 (ZENOAQ RESOURCE, published 2016).
Each block holds one binder with its values, some of them ahead of it.

What was measured:
[1] = biological target: T1, human podoplanin on glioblastoma tissue (paraffin section) (human, UniProt Q86YL7 23-162); experiment: immunohistostaining of paraffin sections (FIG. 8)
T1 chain: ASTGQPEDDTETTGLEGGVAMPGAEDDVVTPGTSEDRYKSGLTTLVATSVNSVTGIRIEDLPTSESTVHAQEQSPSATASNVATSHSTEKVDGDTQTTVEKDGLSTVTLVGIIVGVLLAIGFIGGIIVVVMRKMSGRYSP
Description: (§1) Various paraffin sections were deparaffined in xylene and ethanol solutions. Antigen activation operation was not performed. The endogenous peroxidase was inactivated with 3% H₂O₂. Blocking was performed at room temperature for 10 minutes with SuperBlock (product of Thermo Fisher) and the primary antibody was reacted at room temperature for one hour. After amplification using a LSAB kit (product of Dako), color was developed using DAB (product of Dako).
(§2) LpMab-23 is a cancer cell-specific antibody. […] LpMab-7 used as a positive control reacted with both cancer cells and lymphatic epithelial cells.

[2] = biological target: T2, human podoplanin on esophageal squamous cell cancer tissue (paraffin section) (human, UniProt Q86YL7 23-162); experiment: immunohistostaining of paraffin sections (FIG. 8)
T2 construct: also called esophagus squamous cell cancer
T2 chain: T1 chain
Description: as §1, §2

[3] = biological target: T3, human podoplanin on lung squamous cell cancer tissue (paraffin section) (human, UniProt Q86YL7 23-162); experiment: immunohistostaining of paraffin sections (FIG. 8)
T3 chain: T1 chain
Description: as §1, §2

[4] = biological target: T4, human podoplanin on seminoma tissue (paraffin section) (human, UniProt Q86YL7 23-162); experiment: immunohistostaining of paraffin sections (FIG. 8)
T4 chain: T1 chain
Description: as §1, §2

[5] = biological target: T5, human podoplanin on glioblastoma cells LN319 (human, UniProt Q86YL7 23-162); experiment: flow cytometry on LN319 cells, antibody 1 µg/ml
T5 construct: Podoplanin of the LN319 cell line itself; also called LN 319 cells; podoplanin expression strain
T5 chain: T1 chain
Description: (§3) Reactivity of the anti-podoplanin antibodies (LpMab-2, LpMab-3, LpMab-7, and LpMab-9) with a podoplanin expression strain was studied by flow cytometry. […] The reaction products were each reacted further with an anti-mouse IgG-FITC antibody (product of Life Technologies) at 4° C. for 30 minutes. As a negative control, only the secondary antibody of each of them was used. Fluorescence intensity was measured using EC800 (product of Sony).

[6] = biological target: T6, human podoplanin on mesothelial cells Met-5A (human, UniProt Q86YL7 23-162); experiment: flow cytometry on Met-5A cells, antibody 1 µg/ml
T6 construct: Podoplanin of the cell line itself; also called normal mesothelial cells; normal epithelial cell line (Met-5A)
T6 chain: T1 chain
Description: as §3

[7] = biological target: T7, human podoplanin on malignant mesothelioma cells Y-MESO14-hPDPN (human, UniProt Q86YL7 23-162); experiment: flow cytometry on Y-MESO14-hPDPN cells, antibody 1 µg/ml
T7 construct: Podoplanin gene expression strain
T7 chain: T1 chain
Description: as §3

[8] = biological target: T8, human podoplanin on renal epithelial cells HEK-293T (human, UniProt Q86YL7 23-162); experiment: flow cytometry on HEK-293T cells, antibody 1 µg/ml
T8 construct: Podoplanin of the cell line itself; also called normal renal epithelial cells
T8 chain: T1 chain
Description: as §3

[9] = biological target: T9, synthetic peptide of human podoplanin from position 69 to position 88 (human); experiment: ELISA on synthetic peptides
T9 peptide: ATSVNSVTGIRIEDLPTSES

[10] = biological target: T10, human podoplanin on normal alveolar epithelial cells (paraffin section) (human, UniProt Q86YL7 23-162); experiment: immunohistostaining of a normal lung paraffin section (FIG. 4D)
T10 construct: also called normal lung
T10 chain: T1 chain
Description: (§4) Various paraffin sections were deparaffined in xylene and ethanol solutions. The resulting sections were autoclaved for 20 minutes using an antigen activator reagent (citrate buffer (pH 6.0): product of Dako). Endogenous peroxidase was inactivated with 3% H₂O₂. After blocking at room temperature for 10 minutes with SuperBlock (product of Thermo Fisher), a primary antibody was reacted at room temperature for one hour. After amplification using a LSAB kit (product of Dako), color was developed using DAB (product of Dako).
(§5) LpMab-2 is a tumor-specific antibody. […] LpMab-7 reacted with both (FIG. 4B), which coincided with the data of flow cytometry. LpMab-2 reacted with neither normal alveolar epithelial cells nor lymphatic cells (FIG. 4C). The LpMab-7 on the other hand stained alveolar epithelial cells and lymphatic vessel (FIG. 4D).

[11] = biological target: T11, human podoplanin on lung squamous cell cancer cells RERF-LC-AI-hPDPN (human, UniProt Q86YL7 23-162); experiment: flow cytometry on RERF-LC-AI-hPDPN cells, antibody 1 µg/ml
T11 construct: Podoplanin gene expression strain
T11 chain: T1 chain
Description: as §3

[12] = biological target: T12, human podoplanin on testicular tumor cells (paraffin section) (human, UniProt Q86YL7 23-162); experiment: immunohistostaining of a testicular tumor paraffin section (FIG. 4B)
T12 construct: also called tumor portion of testicular tumor
T12 chain: T1 chain
Description: as §4, §5

[13] = biological target: T13, human podoplanin on lymphatic endothelial cells (human, UniProt Q86YL7 23-162); experiment: flow cytometry on lymphatic endothelial cells, antibody 1 µg/ml
T13 construct: Normal cells; cultured cells in flow cytometry, cells in paraffin sections in immunohistostaining (see assay of each row); also called lymphatic epithelial cells; lymphatic cells
T13 chain: T1 chain
Description: as §3

[14] = biological target: T14, human podoplanin on oral cancer cells HSC3/hPDPN (human, UniProt Q86YL7 23-162); experiment: flow cytometry on HSC3/hPDPN cells, antibody 1 µg/ml
T14 construct: Podoplanin gene expression strain; also called oral cancer cell line
T14 chain: T1 chain
Description: as §3

[15] = biological target: T5, human podoplanin on glioblastoma cells …; experiment: flow cytometry on LN319 cells, culture supernatant

B1: LpMab-7 (antibody)
heavy: DVQLVESGGGLVQPGGSRKLSCAASGFTFSGFGMHWVRQAPEKGLEWVAYISSVSSRIYYADTVKGRFTISRDNPKNTLFLQMTSLRSEDTAMYYCAREQTGPAWFAYWGQGTLVTVSAAKTTPPSVYPLAPGSAAQTNSMVTLGCLVKGYFPEPVTVTWNSGSLSSGVHTFPAVLQSDLYTLSSSVTVPSSTWPSETVTCNVAHPASSTKVDKKIVPRDCGCKPCICTVPEVSSVFIFPPKPKDVLTITLTPKVTCVVVDISKDDPEVQFSWFVDDVEVHTAQTQPREEQFNSTFRSVSELPIMHQDWLNGKEFKCRVNSAAFPAPIEKTISKTKGRPKAPQVYTIPPPKEQMAKDKVSLTCMITDFFPEDITVEWQWNGQPAENYKNTQPIMDTDGSYFVYSKLNVQKSNWEAGNTFTCSVLHEGLHNHHTEKSLSHSPGK
light: DVLMTQTPLSLPVSLGDQASISCRSSRNIVQSTGNTYLEWYLQKPGQSPKLLIFKVSNRFSGVPDRFSGSGSGTDFTLKISRVEAEDLGVYYCFQGSHVPPWTFGGGTKLEIKRADAAPTVSIFPPSSEQLTSGGASVVCFLNNFYPKDINVKWKIDGSERQNGVLNSWTDQDSKDSTYSMSSTLTLTKDEYERHNSYTCEATHKTSTSPIVKSFNRNEC
notes: Mouse IgG1, kappa, from hybridoma; Entries may hold the signal peptide
binding result [1]: binds
binding result [2]: binds
binding result [3]: binds
binding result [4]: binds
binding result [5]: binds
binding result [6]: binds
binding result [7]: binds
binding result [8]: binds
binding result [9]: binds
binding result [10]: binds
binding result [11]: binds
binding result [12]: binds
binding result [13]: binds
binding result [14]: binds

B2: rLpMab-7 (antibody, mouse IgG1, kappa)
heavy: B1 heavy
light: B1 light
notes: Full-length H and L chain of LpMab-7 expressed in CHO cells; also called recombinant LpMab-7
binding result [15]: binds

B3: chLpMab-7 (antibody, human IgG1, kappa)
heavy: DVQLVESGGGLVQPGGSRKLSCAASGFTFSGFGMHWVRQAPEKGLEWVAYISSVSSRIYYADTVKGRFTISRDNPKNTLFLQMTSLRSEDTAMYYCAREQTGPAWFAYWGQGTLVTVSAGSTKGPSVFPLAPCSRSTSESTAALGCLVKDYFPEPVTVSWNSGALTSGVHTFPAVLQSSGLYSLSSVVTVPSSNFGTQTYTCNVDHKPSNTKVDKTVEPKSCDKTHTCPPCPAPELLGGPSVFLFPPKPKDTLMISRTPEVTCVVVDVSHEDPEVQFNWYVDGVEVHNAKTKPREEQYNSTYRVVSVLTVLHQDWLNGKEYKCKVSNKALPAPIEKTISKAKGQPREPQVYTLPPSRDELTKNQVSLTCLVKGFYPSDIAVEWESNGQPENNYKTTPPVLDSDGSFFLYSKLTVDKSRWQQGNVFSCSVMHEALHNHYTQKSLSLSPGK
light: B1 light
notes: culture supernatant used; also called human chimeric LpMab-7
binding result [15]: binds

Next, values leading:

binding result [15]: binds
B4: chLpMab-23 (antibody, human IgG1, kappa, V domains shown)
VH: QVQLKESGPGLVAPSQSLSITCTVSGFSVTSYGIHWVRQPPGKGLEWLGVIWTSGNTNYNSALMSRLSISRDNSKSQVFLKMNSLQTDDTAMYYCAREDYYGYAMDYWGQGTSVTVSS
VL: not shown
notes: Variable regions of LpMab-23 with human IgG1 constant region; Culture supernatant used; also called human chimeric LpMab-23 antibody

binding result [15]: binds
B5: chLpMab-3 (antibody, human IgG1, kappa, V domains shown)
VH: EVQLVESGGGLVKPGGSLKLSCAASGFTFTRYAMSWVRQTPEKRLEWVATISNGGSYTYYLDSVKGRFTLSRDNAKNTLYLQMSSLRSEDTAMYYCARREGGQAGPAWFVYWGQGTLVTVSA
VL: DIVMTQSPSSLAMSVGQKVTMNCKSSQSLLNSSNQKNYLAWYQQKPGQSPKLLVYFASTRESGVPDRFIGSGSGTDFTLTISSAQAEDLADYFCQQYYSTPPTFGAGTKLELKR
notes: culture supernatant used; also called human chimeric LpMab-3
